Measurements as given in doi:10.1101/2025.11.18.689162 (bioRxiv, 2025).

Biological target: cardiac troponin I (TPNI), mouse, endogenous (mouse (endogenous in heart), UniProt P48787 1-211)
Test: cell-based or functional assay

cardiac troponin I (TPNI), mouse, endogenous, sequence (P48787 whole entry): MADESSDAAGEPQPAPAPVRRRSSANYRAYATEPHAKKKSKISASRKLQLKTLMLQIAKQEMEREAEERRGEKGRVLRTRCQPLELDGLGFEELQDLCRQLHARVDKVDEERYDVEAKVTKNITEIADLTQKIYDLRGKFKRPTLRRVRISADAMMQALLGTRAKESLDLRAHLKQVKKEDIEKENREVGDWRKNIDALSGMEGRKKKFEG

B1: PDE4D9, mouse, endogenous (enzyme, mouse (endogenous in heart), UniProt Q01063-2 1-678, looked up)
chain: MSIIMKPRSRSTSSLRTTEAVCFDVDNGTSAGRSPLDPMTSPGSGLILQANFVHSQRRESFLYRSDSDYDLSPKSMSRNSSIASDIHGDDLIVTPFAQVLASLRTVRNNFAALTNLQDRAPSKRSPMCNQPSINKATITEEAYQKLASETLEELDWCLDQLETLQTRHSVSEMASNKFKRMLNRELTHLSEMSRSGNQVSEYISNTFLDKQHEVEIPSPTQKEKEKKKRPMSQISGVKKLMHSSSLTNSCIPRFGVKTEQEDVLAKELEDVNKWGLHVFRIAELSGNRPLTVIMHTIFQERDLLKTFKIPVDTLITYLMTLEDHYHADVAYHNNIHAADVVQSTHVLLSTPALEAVFTDLEILAAIFASAIHDVDHPGVSNQFLINTNSELALMYNDSSVLENHHLAVGFKLLQEENCDIFQNLTKKQRQSLRKMVIDIVLATDMSKHMNLLADLKTMVETKKVTSSGVLLLDNYSDRIQVLQNMVHCADLSNPTKPLQLYRQWTDRIMEEFFRQGDRERERGMEISPMCDKHNASVEKSQVGFIDYIVHPLWETWADLVHPDAQDILDTLEDNREWYQSTIPQSPSPAPDDQEEGRQGQTEKFQFELTLEEDCESDTEKDSGSQVEEDTSCSDSKTLCTQDSESTEIPLDEQVEEEAVAEEESQPETCVPDDCCPDT
TPNI phosphorylation in TAC mice treated with scAAV9-P33 against scAAV9-SC: 2.8 fold
